Drawing on patent publication US5821104, this text covers specific activity (release of pNA in the TPAP assay) for one substance.

The experiment concerns the target Phe-Pro-Ala-pNA.

Consider “Aspergillus niger tripeptidyl aminopeptidase (TPAP) (enzyme)”, for which the specific activity (release of pNA in the TPAP assay) stood at 27 µmol/min/mg.
